Where no end group is shown, it is not given here.
Assays:
[1] = target: T1, MinElp3 (Methanocaldococcus infernus, UniProt D5VRB9 1-534); experiment: MST; conditions: EMSA: 25 C 30 min, 6% native PAGE at 4 C, tRNA stored in 20 mM HEPES pH 7.5, 150 mM NaCl, 5 mM DTT, 1 mM MgCl2, MST buffer not given in material
T1 sequence: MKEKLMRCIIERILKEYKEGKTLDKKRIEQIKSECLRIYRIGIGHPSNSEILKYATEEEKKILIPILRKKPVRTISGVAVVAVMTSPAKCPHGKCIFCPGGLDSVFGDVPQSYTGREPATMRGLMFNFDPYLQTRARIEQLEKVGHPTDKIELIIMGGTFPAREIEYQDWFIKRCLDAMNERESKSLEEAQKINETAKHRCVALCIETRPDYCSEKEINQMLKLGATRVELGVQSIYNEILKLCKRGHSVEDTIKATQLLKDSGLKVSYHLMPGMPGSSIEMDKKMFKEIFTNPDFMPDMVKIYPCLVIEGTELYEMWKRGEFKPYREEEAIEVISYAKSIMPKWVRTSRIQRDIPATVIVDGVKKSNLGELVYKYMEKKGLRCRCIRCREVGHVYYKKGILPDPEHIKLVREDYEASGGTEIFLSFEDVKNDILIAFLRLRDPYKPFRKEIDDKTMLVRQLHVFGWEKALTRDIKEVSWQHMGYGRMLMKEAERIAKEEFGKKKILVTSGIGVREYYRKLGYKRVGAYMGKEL

[2] = system: HsMinElp3 (Methanocaldococcus infernus / Homo sapiens chimera); experiment: MST; conditions: mean of 180, 141, 108; EMSA: 25 C 30 min, 6% native PAGE at 4 C; tRNA stored in 20 mM HEPES pH 7.5, 150 mM NaCl, 5 mM DTT, 1 mM MgCl2; MST buffer not given in material
[3] = system: MinElp3Δ1-41 (Methanocaldococcus infernus); experiment: MST; conditions: legend omits CCA; wt data identical to the CCA set; EMSA: 25 C 30 min, 6% native PAGE at 4 C; tRNA stored in 20 mM HEPES pH 7.5, 150 mM NaCl, 5 mM DTT, 1 mM MgCl2; MST buffer not given in material
[4] = system: ScMinElp3 (Methanocaldococcus infernus / Saccharomyces cerevisiae chimera); experiment: MST; conditions: mean of 229, 162, 75; EMSA: 25 C 30 min, 6% native PAGE at 4 C; tRNA stored in 20 mM HEPES pH 7.5, 150 mM NaCl, 5 mM DTT, 1 mM MgCl2; MST buffer not given in material
[5] = system: MinElp3Δ1-19 (Methanocaldococcus infernus); experiment: MST; conditions: legend omits CCA; wt data identical to the CCA set; EMSA: 25 C 30 min, 6% native PAGE at 4 C; tRNA stored in 20 mM HEPES pH 7.5, 150 mM NaCl, 5 mM DTT, 1 mM MgCl2; MST buffer not given in material
[6] = system: DmcElp3 (Dehalococcoides mccartyi); experiment: MST; conditions: EMSA: 25 C 30 min, 6% native PAGE at 4 C; tRNA stored in 20 mM HEPES pH 7.5, 150 mM NaCl, 5 mM DTT, 1 mM MgCl2; MST buffer not given in material
[7] = target: T2, MinElp3 (Methanocaldococcus infernus) (UniProt D5VRB9); experiment: MST; conditions: EMSA: 25 C 30 min, 6% native PAGE at 4 C; tRNA stored in 20 mM HEPES pH 7.5, 150 mM NaCl, 5 mM DTT, 1 mM MgCl2; MST buffer not given in material
T2 sequence: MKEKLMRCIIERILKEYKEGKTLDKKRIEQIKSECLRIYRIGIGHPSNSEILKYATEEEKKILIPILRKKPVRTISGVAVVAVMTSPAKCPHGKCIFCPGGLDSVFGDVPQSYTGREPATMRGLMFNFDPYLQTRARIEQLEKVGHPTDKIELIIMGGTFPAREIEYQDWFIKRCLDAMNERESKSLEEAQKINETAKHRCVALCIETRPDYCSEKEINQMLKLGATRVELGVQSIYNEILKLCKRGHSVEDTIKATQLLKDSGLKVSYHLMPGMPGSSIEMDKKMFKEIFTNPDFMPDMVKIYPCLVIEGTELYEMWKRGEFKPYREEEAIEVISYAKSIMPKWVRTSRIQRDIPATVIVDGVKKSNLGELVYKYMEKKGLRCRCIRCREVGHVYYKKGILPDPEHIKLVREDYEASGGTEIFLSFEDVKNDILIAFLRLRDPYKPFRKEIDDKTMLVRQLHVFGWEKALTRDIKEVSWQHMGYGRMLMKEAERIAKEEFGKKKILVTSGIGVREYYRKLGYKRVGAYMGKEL

[8] = target: the molecule itself; experiment: SEC; S200 gel filtration, 20 mM HEPES pH 7.5, 150 mM NaCl, 5 mM DTT; aerobic purification; masses of the monomeric forms confirmed by SDS-PAGE and light scattering (RALS and LALS)
[9] = target: T1, MinElp3; experiment: EMSA; EMSA: 25 C 30 min, 6% native PAGE at 4 C; tRNA stored in 20 mM HEPES pH 7.5, 150 mM NaCl, 5 mM DTT, 1 mM MgCl2; MST buffer not given in material; conditions: protein: recombinant; tags: GST tag cleaved (TEV); label: Cy5; hairpin
[10] = target: T3, Methanocaldococcus infernus Elp3, full length (Methanocaldococcus infernus, UniProt D5VRB9 1-534); experiment: ITC
T3 chain: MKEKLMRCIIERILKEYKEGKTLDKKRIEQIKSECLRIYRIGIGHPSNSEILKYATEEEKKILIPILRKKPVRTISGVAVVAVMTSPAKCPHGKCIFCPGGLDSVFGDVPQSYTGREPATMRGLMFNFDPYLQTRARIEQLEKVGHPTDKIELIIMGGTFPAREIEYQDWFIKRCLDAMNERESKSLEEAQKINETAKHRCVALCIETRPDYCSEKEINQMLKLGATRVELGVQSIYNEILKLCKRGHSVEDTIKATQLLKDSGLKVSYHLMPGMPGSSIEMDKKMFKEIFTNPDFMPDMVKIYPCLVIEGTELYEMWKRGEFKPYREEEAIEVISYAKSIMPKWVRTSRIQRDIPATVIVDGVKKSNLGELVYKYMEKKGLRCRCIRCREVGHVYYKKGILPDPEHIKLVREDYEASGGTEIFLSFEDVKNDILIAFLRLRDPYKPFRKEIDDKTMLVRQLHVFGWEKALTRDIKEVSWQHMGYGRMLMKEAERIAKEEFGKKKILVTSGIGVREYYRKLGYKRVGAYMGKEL

## (Dmc)tRNAGluUUC
[1]; mean of 495, 434, 596
  Kd: 508 nM

## (Dmc)tRNAGluUUC(CCA)
[1]
  Kd: 50 nM
[2]
  Kd: 143 nM
[3]
  Kd: 980 nM
[4]
  Kd: 155 nM
[5]
  Kd: 210 nM
[6]
  Kd: 1410 nM

## GCUCGUAUGGCGCAGUGGUAGCGCAGCAGAUUGCAAAUCUGUUGGUCCUUAGUUCGAUCCUGAGUGCGAGCUGCGUCUUCCCAUGGGUGUAUUCGGUCG [(Sc)tRNACysGCA]
[7]
  Kd: 260 nM

## (Sc)tRNASerUGA
[1]; replicates 322, 539, 293 nM
  Kd: 370 nM

## (Sc)tRNACysGCA
[1]; replicates 240, 261, 280 nM
  Kd: 260 nM

B1: MinElp3 Δ1–41 (domain or fragment, Methanocaldococcus infernus, UniProt D5VRB9 42-534, looked up)
chain: GIGHPSNSEILKYATEEEKKILIPILRKKPVRTISGVAVVAVMTSPAKCPHGKCIFCPGGLDSVFGDVPQSYTGREPATMRGLMFNFDPYLQTRARIEQLEKVGHPTDKIELIIMGGTFPAREIEYQDWFIKRCLDAMNERESKSLEEAQKINETAKHRCVALCIETRPDYCSEKEINQMLKLGATRVELGVQSIYNEILKLCKRGHSVEDTIKATQLLKDSGLKVSYHLMPGMPGSSIEMDKKMFKEIFTNPDFMPDMVKIYPCLVIEGTELYEMWKRGEFKPYREEEAIEVISYAKSIMPKWVRTSRIQRDIPATVIVDGVKKSNLGELVYKYMEKKGLRCRCIRCREVGHVYYKKGILPDPEHIKLVREDYEASGGTEIFLSFEDVKNDILIAFLRLRDPYKPFRKEIDDKTMLVRQLHVFGWEKALTRDIKEVSWQHMGYGRMLMKEAERIAKEEFGKKKILVTSGIGVREYYRKLGYKRVGAYMGKEL
notes: Elp3 of Methanocaldococcus infernus without residues 1-41; Truncations were cloned into pETM30 or pETM11; source: E. coli BL21 (DE3) CodonPlus-RIL, purified (GSTPrep, heparin, SEC)
[8]
  binding result: binds

B2: MinElp3 Δ1–46 (domain or fragment, Methanocaldococcus infernus, UniProt D5VRB9 47-534, looked up)
chain: SNSEILKYATEEEKKILIPILRKKPVRTISGVAVVAVMTSPAKCPHGKCIFCPGGLDSVFGDVPQSYTGREPATMRGLMFNFDPYLQTRARIEQLEKVGHPTDKIELIIMGGTFPAREIEYQDWFIKRCLDAMNERESKSLEEAQKINETAKHRCVALCIETRPDYCSEKEINQMLKLGATRVELGVQSIYNEILKLCKRGHSVEDTIKATQLLKDSGLKVSYHLMPGMPGSSIEMDKKMFKEIFTNPDFMPDMVKIYPCLVIEGTELYEMWKRGEFKPYREEEAIEVISYAKSIMPKWVRTSRIQRDIPATVIVDGVKKSNLGELVYKYMEKKGLRCRCIRCREVGHVYYKKGILPDPEHIKLVREDYEASGGTEIFLSFEDVKNDILIAFLRLRDPYKPFRKEIDDKTMLVRQLHVFGWEKALTRDIKEVSWQHMGYGRMLMKEAERIAKEEFGKKKILVTSGIGVREYYRKLGYKRVGAYMGKEL
notes: Elp3 of Methanocaldococcus infernus without residues 1-46; Truncations were cloned into pETM30 or pETM11; source: E. coli BL21 (DE3) CodonPlus-RIL, purified (GSTPrep, heparin, SEC)
[8]
  binding result: binds

B3: MinElp3 Δ1–54 (domain or fragment, Methanocaldococcus infernus, UniProt D5VRB9 55-534, looked up)
chain: ATEEEKKILIPILRKKPVRTISGVAVVAVMTSPAKCPHGKCIFCPGGLDSVFGDVPQSYTGREPATMRGLMFNFDPYLQTRARIEQLEKVGHPTDKIELIIMGGTFPAREIEYQDWFIKRCLDAMNERESKSLEEAQKINETAKHRCVALCIETRPDYCSEKEINQMLKLGATRVELGVQSIYNEILKLCKRGHSVEDTIKATQLLKDSGLKVSYHLMPGMPGSSIEMDKKMFKEIFTNPDFMPDMVKIYPCLVIEGTELYEMWKRGEFKPYREEEAIEVISYAKSIMPKWVRTSRIQRDIPATVIVDGVKKSNLGELVYKYMEKKGLRCRCIRCREVGHVYYKKGILPDPEHIKLVREDYEASGGTEIFLSFEDVKNDILIAFLRLRDPYKPFRKEIDDKTMLVRQLHVFGWEKALTRDIKEVSWQHMGYGRMLMKEAERIAKEEFGKKKILVTSGIGVREYYRKLGYKRVGAYMGKEL
notes: Elp3 of Methanocaldococcus infernus without residues 1-54; Truncations were cloned into pETM30 or pETM11; source: E. coli BL21 (DE3) CodonPlus-RIL, purified (GSTPrep, heparin, SEC)
[8]
  binding result: binds

B4: MinElp3 Δ1–68 (domain or fragment, Methanocaldococcus infernus, UniProt D5VRB9 69-534, looked up)
chain: KKPVRTISGVAVVAVMTSPAKCPHGKCIFCPGGLDSVFGDVPQSYTGREPATMRGLMFNFDPYLQTRARIEQLEKVGHPTDKIELIIMGGTFPAREIEYQDWFIKRCLDAMNERESKSLEEAQKINETAKHRCVALCIETRPDYCSEKEINQMLKLGATRVELGVQSIYNEILKLCKRGHSVEDTIKATQLLKDSGLKVSYHLMPGMPGSSIEMDKKMFKEIFTNPDFMPDMVKIYPCLVIEGTELYEMWKRGEFKPYREEEAIEVISYAKSIMPKWVRTSRIQRDIPATVIVDGVKKSNLGELVYKYMEKKGLRCRCIRCREVGHVYYKKGILPDPEHIKLVREDYEASGGTEIFLSFEDVKNDILIAFLRLRDPYKPFRKEIDDKTMLVRQLHVFGWEKALTRDIKEVSWQHMGYGRMLMKEAERIAKEEFGKKKILVTSGIGVREYYRKLGYKRVGAYMGKEL
notes: Elp3 of Methanocaldococcus infernus without residues 1-68; Truncations were cloned into pETM30 or pETM11; source: E. coli BL21 (DE3) CodonPlus-RIL, purified (GSTPrep, heparin, SEC)
[8]
  binding result: binds

B5: ASL yeast tRNASerUGA (structured_RNA)
RNA: GACAGACUUGAAAUCUGUU
[9]
  binding result: binds

B6: histone H3 peptide H3(10–18) with an added N-terminal tyrosine (peptide)
peptide: YSTGGKAPRK-NH2
modifications: not fully specified (N-terminus)
[10]
  Kd: > 350000 nM

B7: alpha-tubulin peptide Tubulin(36–44) with an added N-terminal tyrosine (peptide)
peptide: YMPSDKTIGG-NH2
modifications: not fully specified (N-terminus)
[10]
  Kd: > 500000 nM

B8: MinElp3 Δ1–19 (domain or fragment, Methanocaldococcus infernus, UniProt D5VRB9 20-534, looked up)
chain: GKTLDKKRIEQIKSECLRIYRIGIGHPSNSEILKYATEEEKKILIPILRKKPVRTISGVAVVAVMTSPAKCPHGKCIFCPGGLDSVFGDVPQSYTGREPATMRGLMFNFDPYLQTRARIEQLEKVGHPTDKIELIIMGGTFPAREIEYQDWFIKRCLDAMNERESKSLEEAQKINETAKHRCVALCIETRPDYCSEKEINQMLKLGATRVELGVQSIYNEILKLCKRGHSVEDTIKATQLLKDSGLKVSYHLMPGMPGSSIEMDKKMFKEIFTNPDFMPDMVKIYPCLVIEGTELYEMWKRGEFKPYREEEAIEVISYAKSIMPKWVRTSRIQRDIPATVIVDGVKKSNLGELVYKYMEKKGLRCRCIRCREVGHVYYKKGILPDPEHIKLVREDYEASGGTEIFLSFEDVKNDILIAFLRLRDPYKPFRKEIDDKTMLVRQLHVFGWEKALTRDIKEVSWQHMGYGRMLMKEAERIAKEEFGKKKILVTSGIGVREYYRKLGYKRVGAYMGKEL
notes: Elp3 of Methanocaldococcus infernus without residues 1-19; Truncations were cloned into pETM30 or pETM11; The general purification goes by a GST tag that is cleaved; source: E. coli BL21 (DE3) CodonPlus-RIL, purified (GSTPrep, heparin, SEC)
[8]
  binding result: binds

From PMC6367351 (Nature Communications, 2019)
